For experiment [1], the target named is T1, recombinant human Migration Stimulating Factor (rhMSF) (human, UniProt P02751 32-647).
T1 construct: Secreted by the CHO-3E6 clone; also called hrMSF; human recombinant MSF
The experiment can be described thus: immunoaffinity chromatography on a column coupled to 1G5.3. Here is the method:
Recombinant human MSF was purified from the conditioned medium of CHO-3E6 by immunoaffinity chromatography (IAC). […] The 1G5.3 column was extensively washed at 5 ml/min with buffer A followed by buffer B (50 mM Tris-HCl, 500 mM NaCl, pH 7.00), and bound rhMSF was eluted with buffer C (3.5 M MgCl2) in a total volume of 4 ml. Homogeneity of the eluted protein was assessed using an analytical Superdex 200 10/300 GL gel filtration column (GE Healthcare), equilibrated and eluted at 0.5 ml/min with buffer B on an AKTA Purifier FPLC system. In addition, aliquots of conditioned medium (input), unbound material (flow through) and eluted protein (eluate) from IAC were resolved on NuPAGE Novex Bis-Tris 10% gels (Thermo Fisher Scientific, Waltham, Mass.) under denaturing and reducing conditions (i.e., in the presence of dithiothreitol). […] Membranes were developed with Immobilon western HRP substrate (Merck Millipore, Darmstadt, Germany) and chemiluminescence recorded on a Chemidoc MP system (Bio-Rad). Throughout the purification process, total protein content was determined using a Bradford protein assay (Bio-Rad) and rhMSF specific titres were measured with an ELISA MSF assay made “in-house” as described below.

The target of experiment [2] is T2, human Fibronectin 1 (hFn1) (human, UniProt P02751 32-2477).
T2 construct: Bought from Calbiochem (Cat No 341635)
The experiment can be described thus: indirect ELISA, titration of purified 1G5.3 on coated hFn1. Here is the method: ELISA plates (Nunc Maxisorb immunoplates Cat. No.: 446612) were coated (0/N at 4° C.) with His-MSF (1-0.5 μg/well), supernatant from CHO-3E6 (50 μl) or hFn1 (1 μg/well), diluted in 15 mM Na carbonate buffer (pH9.6). After coating plates are washed three times with PBS+/+ and 0.05% Tween 20 (washing buffer), then non-specific interactions are blocked by incubation for 2 h at room temperature with 5% (w/v) dry milk in washing buffer. Wells were washed three times with washing buffer, then aliquots of rabbit polyclonal antiserum, supernatants from anti-MSF hybridomas or purified 1G5.3 diluted in washing buffer were added and incubated 1 h at room temperature. Anti-rabbit IgG or anti-mouse IgG labelled with horse-radish peroxidase (Cat No: GENA934 and GENA931 respectively, GE […]) were then added (1/2000 in washing buffer) and incubated 1 h at room temperature. Reaction was developed with 3,3′,5,5′-tetramethylbenzidine (TMB; 1 Step™ ULTRA TMB-ELISA, Thermo Scientific, Rockford, Ill., USA; Cat No: 34019) and stopped with 2N H₂SO₄ before reading absorbance at 450 nm with an automated plate reader (Versamax microplate reader). Baseline was obtained adding anti-MSF antibody on buffer-coated wells.
mAb 1G5.3 was purified from culture supernatant of hybridoma cells by affinity chromatography on Protein-G sepharose. […] The purified antibody was finally analyzed in ELISA. […]
For orientation: ELISA stands for enzyme-linked immunosorbent assay.

The target in experiment [3] is T3, human Migration Stimulating Factor (MSF), natural protein in human cancer tissues (human, UniProt P02751 32-647).
T3 construct: Natural MSF as stained in formalin-fixed paraffin-embedded sections of breast and lung cancer; also called human MSF
The experiment can be described thus: immunohistochemistry on paraffin sections of breast and lung cancer. Here is the method:
Paraffin-embedded human tissue sections were cut and kept overnight at 37° C. Sections were dewaxed in Bioclear. Antigen unmasking was performed in a Decloaker Chamber in DIVA Buffer 1× (Biocare Medical Cat No: DV2004) for 3 minutes at 125° C. and 5 minutes at 90° C.
After blocking endogenous peroxidases with Peroxidized-1 (Biocare Medical Cat No: PX968) for 15 minutes, non-specific binding sites were blocked with Background Sniper solution (Biocare Medical Cat No: BS966) for 30 minutes. Human tissue samples were then incubated 1 h with 1G5.3 (1/150-1/300) to identify MSF, or with mouse monoclonal anti-human CD68 (Dako Cat No: M0876, clone PG-M1, 780 μg/ml for 1 h) to identify macrophages. […] Then the reactions were developed with 3,3′-Diaminobenzidine tetrahydrochloride (Biocare Medical Cat No: DB801). Slides were counterstained for 3 min with haematoxylin solution.

Experiment [4] deals with T4, biot-VSIPPRNLGY peptide (biot-Ahx-VSIPPRNLGY) (human).
T4 construct: Synthetic; captured on NeutrAvidin-coated plates; also called unique MSF decapeptide; C-terminal unique tail of MSF
T4 peptide: {Biotin-Ahx}-VSIPPRNLGY
The experiment can be described thus: indirect ELISA, peptide captured on NeutrAvidin, 1G5.3 at 10 ng/ml (FIG. 20A). Here is the method: FIG. 20. Indirect ELISA analysis of the interaction of mAb7.1 and 1G5.3 with biot-[…] and rhMSF. A) The biot-[…] peptide (SEQ ID NO:11) (spanning the aa 648-657 sequence at the C-terminus of human MSF) was captured onto Maxisorb plates that had been coated with NeutrAvidin. […] B) Maxisorb plates were coated with rhMSF, and incubated with mAb7.1 hybridoma cultures or purified 1G5.3. […] Wells containing NeutrAvidin (NeutrAvidin in A) or PBS−/− (PBS in B) only were taken as negative controls. Shown are plots from one out of two independent experiments, each performed in duplicate.
Nunc Maxisorb immunoplates were coated (0/N at 4° C.) with NeutrAvidin protein (1 μg/well; Thermo Scientific, Rockford, Ill., USA; Cat No: 31000) in PBS−/−. Biot-[…] (SEQ ID NO:11) peptide (100 μl/well, 10 μg/ml in PBS+/+ containing 0.05% (v/v) Tween 20, washing buffer) was added and captured on the NeutrAvidin layer for 1 h at room temperature; this allowed N→C orientation of the peptide, thus mimicking its topological organization in the context of the MSF protein [19]. Uncoated sites were blocked by incubation for 2 h at room temperature with 2% (w/v) bovine serum albumin (BSA, Sigma Aldrich; Cat No: A7030) in PBS+/+. […] Each sample was analyzed in duplicate and results were reported as mean±SD.

The target in experiment [5] is T1, recombinant human Migration Stimulating …. The experiment can be described thus: sandwich ELISA, 1G5.3-F(ab)′2 coated, rhMSF standard curve. Here is the method: To measure MSF levels in biological fluids a sandwich ELISA has been developed. To this aim ELISA plates were incubated O/N at 4° C. with 250 ng/well of 1G5.3 or 500 ng/well of the 1G5.3-F(ab)′2 fragment diluted in PBS−/−, pH 7.0. After coating, plates were washed three times with 300 μl of washing buffer and then blocked with 5% dry milk for 2 h at 37° C. 100 μl of human plasma [informed consents were obtained] diluted 1/10 in washing buffer containing 2% Bovine Serum Albumin were then added and incubated for 1 h at room temperature. In the same plate a standard curve was generated using purified recombinant human MSF. After washing, plates were incubated with commercial biotinylated polyclonal Sheep IgG recognizing human hFn1 (0.25 μg/ml in washing buffer; R&D Cat No: BAF1918) for 1 h at room temperature. Finally, 100 μl of peroxidase-streptavidin (BioSpa Cat No: SB01-161) diluted 1/10000 in washing buffer were added and incubated 1 h at room temperature. Plates were then washed and incubated with 100 μl/well of the chromogenic substrate TMB before blocking with 2N H2SO4. Absorbance was read at 450 nm as described above. Linear regression was used to calculate MSF concentration in plasma samples from the standard curve made with recombinant MSF.
The 1G5.3-F(ab)′2 fragment was then tested in the sandwich ELISA following the same procedure outlined above. […]

Ends that are not written are not given here. * marks the point of attachment. Biotin = O=C1N[C@H]2[C@H](CS[C@H]2CCCCC(=O)*)N1; Ahx = NCCCCCC(=O)O

T1 sequence (P02751 other isoform, or with tags, fused parts or gaps limits assumed): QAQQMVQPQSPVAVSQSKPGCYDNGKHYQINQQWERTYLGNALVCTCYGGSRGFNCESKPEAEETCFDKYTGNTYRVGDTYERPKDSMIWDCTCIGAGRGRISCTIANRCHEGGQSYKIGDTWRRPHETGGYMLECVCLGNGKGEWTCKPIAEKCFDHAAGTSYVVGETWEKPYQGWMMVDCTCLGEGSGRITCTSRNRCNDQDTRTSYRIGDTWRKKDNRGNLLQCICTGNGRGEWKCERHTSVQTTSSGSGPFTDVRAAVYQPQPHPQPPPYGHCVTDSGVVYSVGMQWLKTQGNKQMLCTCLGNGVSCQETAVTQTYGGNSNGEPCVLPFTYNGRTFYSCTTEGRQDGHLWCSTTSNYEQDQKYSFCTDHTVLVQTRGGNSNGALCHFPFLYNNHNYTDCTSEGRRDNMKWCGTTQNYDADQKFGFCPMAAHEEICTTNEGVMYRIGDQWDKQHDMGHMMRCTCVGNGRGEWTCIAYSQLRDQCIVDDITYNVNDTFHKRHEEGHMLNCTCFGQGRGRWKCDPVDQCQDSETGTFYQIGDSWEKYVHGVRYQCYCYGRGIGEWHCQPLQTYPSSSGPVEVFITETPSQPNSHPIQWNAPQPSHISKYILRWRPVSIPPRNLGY
T2 sequence (P02751 other isoform, or with tags, fused parts or gaps limits assumed): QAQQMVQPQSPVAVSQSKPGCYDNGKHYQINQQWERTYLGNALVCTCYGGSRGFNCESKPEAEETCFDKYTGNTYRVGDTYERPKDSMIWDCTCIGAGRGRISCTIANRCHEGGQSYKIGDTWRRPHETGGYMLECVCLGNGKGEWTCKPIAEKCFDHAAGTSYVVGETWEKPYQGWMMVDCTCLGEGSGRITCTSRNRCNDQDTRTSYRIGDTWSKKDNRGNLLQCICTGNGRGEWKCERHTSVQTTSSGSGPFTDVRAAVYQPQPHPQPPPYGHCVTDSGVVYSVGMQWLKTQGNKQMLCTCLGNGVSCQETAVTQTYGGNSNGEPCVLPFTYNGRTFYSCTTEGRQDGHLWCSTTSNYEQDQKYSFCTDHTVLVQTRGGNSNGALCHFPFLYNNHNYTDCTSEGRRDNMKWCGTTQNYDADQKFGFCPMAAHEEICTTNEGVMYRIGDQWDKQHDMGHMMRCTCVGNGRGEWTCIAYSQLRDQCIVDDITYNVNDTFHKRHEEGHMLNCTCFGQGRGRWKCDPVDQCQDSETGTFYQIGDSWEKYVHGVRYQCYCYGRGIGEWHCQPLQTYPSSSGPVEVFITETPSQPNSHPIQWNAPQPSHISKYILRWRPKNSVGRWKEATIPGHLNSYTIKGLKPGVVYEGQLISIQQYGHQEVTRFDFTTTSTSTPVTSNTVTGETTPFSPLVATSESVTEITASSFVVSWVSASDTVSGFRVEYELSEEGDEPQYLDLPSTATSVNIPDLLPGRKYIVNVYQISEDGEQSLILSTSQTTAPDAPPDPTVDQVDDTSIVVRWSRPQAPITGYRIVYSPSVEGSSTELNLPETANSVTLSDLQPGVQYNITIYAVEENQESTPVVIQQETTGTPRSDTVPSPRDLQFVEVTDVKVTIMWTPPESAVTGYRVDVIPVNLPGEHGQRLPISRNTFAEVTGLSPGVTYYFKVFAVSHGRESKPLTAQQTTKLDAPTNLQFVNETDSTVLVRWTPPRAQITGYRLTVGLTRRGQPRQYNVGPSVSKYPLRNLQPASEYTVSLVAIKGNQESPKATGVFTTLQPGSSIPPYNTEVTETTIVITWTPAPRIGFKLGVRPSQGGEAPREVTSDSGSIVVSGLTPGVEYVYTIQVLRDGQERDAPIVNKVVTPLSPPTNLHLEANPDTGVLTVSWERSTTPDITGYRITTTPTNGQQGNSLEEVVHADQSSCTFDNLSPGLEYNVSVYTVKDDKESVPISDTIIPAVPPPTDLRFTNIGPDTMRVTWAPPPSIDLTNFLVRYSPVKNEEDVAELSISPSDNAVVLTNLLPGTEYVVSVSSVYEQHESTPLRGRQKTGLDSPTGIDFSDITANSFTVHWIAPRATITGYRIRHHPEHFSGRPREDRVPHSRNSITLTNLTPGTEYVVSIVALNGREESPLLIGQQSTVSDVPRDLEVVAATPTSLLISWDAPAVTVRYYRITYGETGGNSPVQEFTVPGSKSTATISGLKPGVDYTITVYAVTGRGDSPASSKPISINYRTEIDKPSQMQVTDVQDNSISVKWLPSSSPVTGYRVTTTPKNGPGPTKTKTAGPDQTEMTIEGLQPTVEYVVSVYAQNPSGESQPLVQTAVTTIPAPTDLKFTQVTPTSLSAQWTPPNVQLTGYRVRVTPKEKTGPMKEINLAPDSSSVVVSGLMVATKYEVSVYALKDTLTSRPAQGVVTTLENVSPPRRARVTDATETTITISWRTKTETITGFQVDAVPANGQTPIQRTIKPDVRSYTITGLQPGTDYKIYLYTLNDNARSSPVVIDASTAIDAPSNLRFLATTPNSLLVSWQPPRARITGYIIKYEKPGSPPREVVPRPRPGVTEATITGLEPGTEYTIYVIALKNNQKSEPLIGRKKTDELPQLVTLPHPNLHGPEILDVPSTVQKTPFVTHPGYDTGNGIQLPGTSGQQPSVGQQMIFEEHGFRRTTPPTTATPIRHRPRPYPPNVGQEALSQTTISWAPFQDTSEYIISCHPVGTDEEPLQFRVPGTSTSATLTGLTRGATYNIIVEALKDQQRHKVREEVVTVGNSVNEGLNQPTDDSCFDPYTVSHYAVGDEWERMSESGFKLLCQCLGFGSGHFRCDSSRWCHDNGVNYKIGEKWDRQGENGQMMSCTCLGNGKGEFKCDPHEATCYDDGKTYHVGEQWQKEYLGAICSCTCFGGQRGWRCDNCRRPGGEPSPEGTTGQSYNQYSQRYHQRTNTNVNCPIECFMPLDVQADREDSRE

B1: monoclonal antibody 1G5.3 (antibody, mouse IgG1, kappa, V domains shown)
VH: EVKIEESGGGLVQPGGSMKLSCVASGFTFSNDWMNWVRQSPEKGLEWVAEIRMKSDNYATYYAESVKGRFTISRDDSKNSVYLQMNNLRAEDNGIYYCTSWDYWGQGTTLTVSS
VL: DIVMSQSPSSLAVSTGEKVTMNCRSSHYLLNSRTRKNFLSWYQQKPGQSPQLLIYWASTRYSGVPDRFTGSGSGTDFTLTISSVQAEDLAVYYCKQSYNLHTFGGGTKLEIKR
notes: Mouse IgG1, kappa; Used purified (Protein G) or as hybridoma supernatant; also called mAb 1G5.3; 1G5.3 mAb
Consider B1, for which the binding result in experiment [1] is on record as “binds”; in experiment [2], “no binding (tested: 10 µg/ml to 0.005 ng/ml of 1G5.3)”; in experiment [3], “binds”; in experiment [4], “binds”.

B2: 1G5.3-F(ab)′2 fragment (other, not shown: a dimerising Fc or GST)
heavy: B1 VH
light: DIVMSQSPSSLAVSTGEKVTMNCRSSHYLLNSRTRKNFLSWYQQKPGQSPQLLIYWASTRYSGVPDRFTGSGSGTDFTLTISSVQAEDLAVYYCKQSYNLHTFGGGTKLEIKRADAAPTVSIFPPSSEQLTSGGASVVCFLNNFYPKDINVKWKIDGSERQNGVLNSWTDQDSKDSTYSMSSTLTLTKDEYERHNSYTCEATHKTSTSPIVKSFNRNEC
notes: Made from purified 1G5.3 by pepsin digestion; 110 kDa non-reduced; also called anti-human MSF 1G5.3 F(ab)′2 fragment
With B2, the binding result in experiment [5] is “binds”.

These data come from patent US20200283515A1 (HUMANITAS MIRASOLE S P A, published 2020).
